Here are results for 3 molecules from publication PMC8971729 (2022).

T1: human CD46 protein (His tag) (human, UniProt P15529)
T1 chain: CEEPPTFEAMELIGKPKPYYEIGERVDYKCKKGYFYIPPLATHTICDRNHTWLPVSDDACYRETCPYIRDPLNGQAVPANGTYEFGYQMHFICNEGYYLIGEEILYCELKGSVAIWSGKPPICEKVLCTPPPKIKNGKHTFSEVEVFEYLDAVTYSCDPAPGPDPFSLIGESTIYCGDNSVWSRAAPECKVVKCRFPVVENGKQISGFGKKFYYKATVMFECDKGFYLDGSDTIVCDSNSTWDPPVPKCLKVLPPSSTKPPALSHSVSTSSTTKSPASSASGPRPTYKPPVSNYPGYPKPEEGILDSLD

T2: Human desmoglein-2 Fc chimera protein (DSG2) (human, UniProt Q14126)
T2 chain: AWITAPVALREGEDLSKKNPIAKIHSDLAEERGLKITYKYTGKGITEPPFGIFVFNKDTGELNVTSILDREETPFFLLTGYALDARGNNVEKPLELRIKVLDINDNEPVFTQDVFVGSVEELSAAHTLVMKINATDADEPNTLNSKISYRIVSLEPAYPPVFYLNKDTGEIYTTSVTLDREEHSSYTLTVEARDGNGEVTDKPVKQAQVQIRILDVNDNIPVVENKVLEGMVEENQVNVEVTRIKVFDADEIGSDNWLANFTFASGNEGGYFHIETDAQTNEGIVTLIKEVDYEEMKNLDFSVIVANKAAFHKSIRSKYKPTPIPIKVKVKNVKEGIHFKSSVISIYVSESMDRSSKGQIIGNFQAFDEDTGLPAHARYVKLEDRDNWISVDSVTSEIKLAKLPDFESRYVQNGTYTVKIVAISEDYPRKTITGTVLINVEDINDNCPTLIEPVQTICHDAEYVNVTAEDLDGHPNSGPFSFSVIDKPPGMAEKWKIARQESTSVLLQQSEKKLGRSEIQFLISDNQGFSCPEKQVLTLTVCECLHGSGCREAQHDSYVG

B1: HAdV-B3 fiber knob (domain or fragment)
chain: NSIALKNNTLWTGPKPEANCIIEYGKQNPDSKLTLILVKNGGIVNGYVTLMGASDYVNTLFKNKNVSINVELYFDATGHILPDSSSLKTDLELKYKQTADFSARGFMPSTTAYPFVLPNAGTHNENYIFGQCYYKASDGALFPLEVTVMLNKRLPDSRTSYVMTFLWSLNAGLAPETTQATLITSPFTFSYIREDD
B2: HAdV-C5 fiber knob protein (domain or fragment)
chain: KNNDKLTLWTTPAPSPNCRLNAEKDAKLTLVLTKCGSQILATVSVLAVKGSLAPISGTVQSAHLIIRFDENGVLLNNSFLDPEYWNFRNGDLTEGTAYTNAVGFMPNLSAYPKSHGKTAKSNIVSQVYLNGDKTKPVTLTITLNGTQETGDTTPSAYSMSFSWDWSGHNYINEIFATSSYTFSYIAQE
B3: human CXADR Fc chimera protein (CAR) (Fc fusion)
chain: LSITTPEEMIEKAKGETAYLPCKFTLSPEDQGPLDIEWLISPADNQKVDQVIILYSGDKIYDDYYPDLKGRVHFTSNDLKSGDASINVTNLQLSDIGTYQCKVKKAPGVANKKIHLVVLVKPSGARCYVDGSEEIGSDFKIKCEPKEGSLPLQYEWQKLSDSQKMPTSWLAEMTSSVISVKNASSEYSGTYSCTVRNRVGSDQCLLRLNVVPPSNKAG

Common to all, as to assay: SPR
The target of assay [1] is T1, human CD46 protein (His tag).
Assay [2] concerns the target T2, Human desmoglein-2 Fc chimera protein ….
The target of assay [3] is T1, human CD46 protein (His tag).
The target of assay [4] is B3.
In assay [5] the target is HAdV-D10 fiber knob protein (human adenovirus type 10 (HAdV-D10)).

Molecule B1 showed a koff in assay [1] of 0.025 s⁻¹. Besides, the Kd in assay [2] came to 66.9 µM; in assay [3] it was 0.16 µM.
As to B2, the koff in assay [4] was determined as 0.0019 s⁻¹.
B3: the koff in assay [5] came out at 0.0019 s⁻¹.
